Publication PMC3731144 (Proteins, 2012)

Tests used:
CCR5-utilizing virus = settings: ref [4]; cited from earlier work
[1] = target: gp120YU2 K97A (HIV-1 strain YU2); experiment: SPR
[2] = target: gp120YU2 D474A (HIV-1 strain YU2); experiment: SPR
[3] = target: gp120YU2 T257A (HIV-1 strain YU2); experiment: SPR
[4] = target: gp120YU2 E102A (HIV-1 strain YU2); experiment: SPR

Row | Substance | antiviral effectiveness by tropism (CCR5-utilizing virus) | Kd [1] [nM] | Kd [2] [nM] | RU bound at the end of association (500 nM CD4) [2] [RU] | Kd [3] [nM] | RU bound at the end of association (500 nM CD4) [3] [RU] | Kd [4] [nM]
1 | maraviroc | only effective against solely CCR5-utilizing virus | – | – | – | – | – | –
2 | Hexahis-tagged 4-domain soluble CD4 (receptor) | – | 10 | 5 | 47 | 5 | 23 | 3
